# Data from patent publication US9872921B2, “DE-N-acetyl sialic acid antigens, antibodies thereto, and methods of use in cancer therapy” (priority 2004, dated 2018).
# B1: SEAM 12: anti-N-Pr NmB PS murine mAb (IgG2a) (antibody, V domains shown)
# VH: QVKLEQSGGGLVRPGNSLKLSCVTSGFTFINYRMHWLRQPPGKRLEWIAVITDNSDNYVVNYAESVKGRFAISRDDSKSSVYLEMNRLREEDTATYFCSRSRRSFFDYWGQGTTLTVS
# VL: DIVMTQTTVIMSASPGEKVTMTCSASSSVTYMHWYQQKSRTSPKLWIYDTSKLASGVPGRFSGSGSGNSYALTISSMEPEDVATYYCFQGSGYPLTFGAGTKLGLKRA
# modifications: mouse
# B2: SEAM 35: anti-N-Pr NmB PS murine mAb (IgG2a) (antibody, V domains shown)
# VH: EVKLEESGGGLVQPGGSLSLSCAASGFTFTDYYLSWVRQPPGKALEWLGFIRNTANGYTTEYSASVKGRFTIARDNSQSILTLQMNALRAEDSATYYCARWSRRAMDYWGQGTSVTVS
# VL: DIVMTQSPISMSMSLGERVTLSCKASENVGTYVSWYQQKPEQSPKLLISGASNRYTGVPDRFTGSGSATDFTLTISSVQAEDLADYHCGQSYNYPYTFGGGTKLEIKRA
# modifications: mouse
# Legend:
# SK-MEL 28 cells = assay: Cell cycle analysis by propidium iodide staining and flow cytometry; assay type: cell-based, human; details: 100 nM, 48 h
# Protocol: To further assess the affect of SEAM 3 mAb on cell growth, the stage of the cell cycle after treatment with SEAM 3 was determined. In this experiment, the cells were stained with the fluorescent DNA binding dye propidium iodide to characterize cell populations in various stages of the cell cycle and the effects of adding control antibodies, nocodazole (a drug that arrest the cells in mitosis) and SEAM 3.
# Approximately 10^5 SK-MEL 28 cells were plated on a 96-well tissue culture plate and allowed to adhere. After 24 h the medium was replaced with one that had either antibody or drug and incubated for a further 48 h. Cells were spun (to collect any cells that may have detached), and fixed in 70% ice-cold methanol (added drop wise) for at least 30 minutes at 4° C. The cells were washed twice with PBS, and to ensure that only DNA was stained, the fixed cells were treated with ribonuclease I (100 μg/ml, source) for 30 minutes at 37° C. Propidium iodide (50 μg/ml) was added and samples were analyzed using a Guava EasyCyte flow cytometer.
# SEAM 3 = assay: Inhibition ELISA of SEAM 3 binding to plate-coated N-Pr NmB PS-dodecylamine; design: species or system murine; details: dilution required to decrease absorbance at 405 nm by 50%
# Chain of SEAM 3 (as listed by the source): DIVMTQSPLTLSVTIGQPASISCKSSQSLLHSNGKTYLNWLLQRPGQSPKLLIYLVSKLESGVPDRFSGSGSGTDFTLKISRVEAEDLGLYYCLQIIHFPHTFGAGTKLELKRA
# Chain of SEAM 3 (as listed by the source): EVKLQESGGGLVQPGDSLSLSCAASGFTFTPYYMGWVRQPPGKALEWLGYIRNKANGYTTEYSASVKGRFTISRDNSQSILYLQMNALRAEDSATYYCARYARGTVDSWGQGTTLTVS
# Protocol: The ability of colominic acid and N-Pr NmB PS to inhibit binding of SEAM 3 to in an ELISA was compared to sialidase A-treated colominic acid and N-Pr NmB PS prepared as described above. The wells of microtiter plates (Immulon 2; Dynatech Laboratories, Inc.) were coated with N-Pr NmB PS-dodecylamine (prepared as described in Example 1) in phosphate buffered saline (PBS; pH 7.4). The plates were incubated overnight at 4° C. After washing three times with PBS, the wells were filled with 200 μl of blocking buffer (PBS containing 1% bovine serum albumin [BSA, Sigma] and 0.1% sodium azide; [pH 7.4]) and then incubated for 30-60 min at room temperature to block nonspecific binding sites. The plates were washed three times with PBS buffer. Inhibitors were serially diluted in blocking buffer on the plate in total final volume of 50 μl. SEAM 3 diluted in blocking buffer to a concentration that produced an OD405 nm of 0.5 when developed with substrate was added to the wells in a volume of 50 μl. The plates were covered and incubated overnight at 4° C. […] The absorbance at 405 nm after 30 minutes incubation at ambient temperature was measured using a BioRad Model 550 microtiter plate reader. The relative activity of each sample was compared by determining the dilution required to decrease the absorbance at 405 nm by 50% of the absorbance observed in wells containing SEAM 3 but no inhibitor.
# NmB strain M7 = assay: Fluorescence microscopy of SEAM 12 binding to capsule PS on NmB strain M7 grown with N-acyl mannosamine supplements; design: species or system Neisseria meningitidis
# From the text: The trihaloacetylated mannosamine was incorporated into NmB PS by inoculating colonies of NmB strain M7 grown overnight at 37 degrees C. in 5% carbon dioxide on a freshly streaked chocolate agar plate to an OD620 nm of 0.1 in Muller-Hinton broth supplemented with 5 millimolar N-acyl mannosamine For example, N-acetyl, -trichloroacetyl, -trifluoroacetyl mannosamine. Stain M7 contains a transposon the interrupts the gene encoding N-acetyl-D-glucosamine-6-phosphate 2 epimerase (Swartley et al. 1994, J. Bact. 176:1530; Swartley et al. 1996, J. Bact. 178:4052). As a result, the bacteria cannot synthesize capsule PS unless the growth media was supplemented with N-acetyl mannosamine Therefore, the N-acyl content of the capsule PS synthesized in this system can be determined by the N-acyl or mixture of N-acyl mannosamine provided in the growth media. The bacteria were grown at 37 degrees C. […]).
# There is no binding of SEAM 12 to M7 without N-acyl mannosamine or with N-trichloroacetyl mannosamine supplement (FIG. 37, panels B and C). […] However, SEAM 12 does bind to the capsule PS containing N-trifluoroacetyl groups (FIG. 37, panel D, shaded gray in the figure) since the trifluoromethyl group is nearly the same size as the methyl group of the N-acetyl derivative.
# [1] = tested on: polysialic acid antigens expressed by the human neuronal cell line CHP-134; details: cited from earlier work
molecule,measurement,setting,value
"COC(=O)Nc1nc2cc(C(=O)c3cccs3)ccc2[nH]1 [nocodazole, reference compound]",cells arrested in G2/M phase,SK-MEL 28 cells,approximately 50%
poly alpha (2→8) N-acetyl neuraminic acid [colominic acid],"activity for binding to SEAM 3, fold less than N-Pr NmB PS",SEAM 3,approximately 200 fold
B1,SEAM 12 binding to capsule PS,NmB strain M7; capsule PS containing N-trifluoroacetyl groups,does bind
same,SEAM 12 binding to M7,NmB strain M7; growth media supplemented with N-acetyl mannosamine,binding is indicated by the presence of red fluorescence
same,SEAM 12 binding to M7,NmB strain M7; with N-trichloroacetyl mannosamine supplement,no binding
same,SEAM 12 binding to M7,NmB strain M7; without N-acyl mannosamine,no binding
B2,cross-reactivity with polysialic acid antigens expressed by CHP-134,[1],greater cross-reactivity
